In US20220235344A1, “TRYPSIN VARIANTS WITH IMPROVED ENZYMATIC PROPERTIES” (BIOPHARMA TRANSLATIONSINSTITUT DESSAU FORSCHUNGS GMBH, priority 2018, published 2022):

T1: H-RAHAK(DNP)-OH
T1 chain: RAHAK

B1: A2C8: Trypsiligase II + H40F, A55A, R96E, K97D, L99F, N143E, E151Y, S190V, Q192A, S214G, G219Q, A221T (protein)
chain: IVGGYTCQENSVPYQVSLNSGHFFCGGSLINDQWVVSAAHCHESRIQVRLGEHNINVLEGNEQFVNAAKIIKHPNFDEDTFNNDIMLIKLSSPVKLNARVATVALPSSCAPAGTQCLISGWGETLSSGVNYPDLLQCLDAPLLPQADCEASYPGKITDNMVCVGFLEGGKKVCAGDSGGPVVCNGELQGIVGWGYQCTLPDNPGVYTKVCNYVDWIQDTIAAN
B2: Trypsiligase II (trypsin variant Y39H/Y59H/K60E/D189K) (protein)
chain: IVGGYTCQENSVPYQVSLNSGHHFCGGSLINDQWVVSAAHCHESRIQVRLGEHNINVLEGNEQFVNAAKIIKHPNFDRKTLNNDIMLIKLSSPVKLNARVATVALPSSCAPAGTQCLISGWGNTLSSGVNEPDLLQCLDAPLLPQADCEASYPGKITDNMVCVGFLEGGKKSCQGDSGGPVVCNGELQGIVSWGYGCALPDNPGVYTKVCNYVDWIQDTIAAN

How the values were obtained:
[1] = system: anti-Her2-Fab-LC_RRKHAK(CF)/HC_YRAH (YRAH at heavy chain); assay: Orthogonal dual-modification of Her2-specific Fab-fragment, second step (heavy chain, DM1); type: biochemical
Description: FIG. 6: Dual modification of a Fab-fragment by utilizing variation in substrate specificity of two Trypsiligase II variants. The HER2-specific Fab-fragment of Trastuzumab (anti-Her2-Fab-LC_RRKH/HC_YRAH, Heavy chain (SEQ ID NO: 2) and anti-Her2-Fab-LC_RRKH/HC_YRAH, Light chain (SEQ ID NO: 3)) was used and the respective recognition sequences genetically introduced. A) Trypsiligase II variant K7F11_H39Y/H59Y/K189D which recognizes the sequence RRKH was used in the first step for attachment of a carboxyfluorescein(CF)-bearing nucleophile. B) In the second step Trypsiligase II variant A2C8 which recognizes the sequence YRAH was used for modification with a nucleophile covalently bound to mertansine (DM1). Analysis by LC-MS. The amount of modified and unmodified Fab-fragment species for the first and second modification step are shown in MS spectrum A and B, respectively. […]
The second modification reaction of the heavy chain was performed in a solution containing 50 μM of the single modified aHer2-Fab-LC_RRKHAK(CF)/HC_YRAH, 1000 μM H-RKKAK(MCC-DM1)-OH, 5 μM A2C8, 100 mM HEPES/NaOH pH 7.8, 100 mM NaCl. […] The proportions of modified and unmodified Fab-fragment species for the first and second modification step were analyzed by LC-MS (see example 1). […] No modification upon the recognition sequence at the heavy chain had been monitored.

[2] = system: Bz PGGXaaXaaXaaHAG-OH / H-XaaXaaXaaAK(DNP)-OH (recognition sequences YRRH, YMKH, RMKH); assay: Time course of transamidation by A2C8_H39Y/H59Y/E60K/K189D and wild-type trypsin (FIG. 5); type: biochemical; conditions: comparison value for A2C8
Method: FIG. 5: Time course of the product formation for a transamidation reaction catalyzed by the variant A2C8_H39Y/H59Y/E60K/K189D as well as the wild-type Trypsin in correlation to various peptide substrates. Reaction conditions: 100 μM acyl donor (Bz PGGXaaXaaXaaHAG-OH), 200 μM acyl acceptor (H-XaaXaaXaaAK(DNP)-OH), 10 μM trypsin variant A2C8_H39Y/H59Y/E60K/K189D or 2.5 nM anionic rat trypsin II, 100 mM HEPES/NaOH pH 7.8, 0.1 mM ZnCl2, 100 mM NaCl, 10 mM CaCl2, T=30° C. UPLC analysis: Waters Acquity Ultra Performance LC, C18-column, gradient 5-60% acetonitrile, 5 min, detection at 360 nm.
The three substrates with the highest apparent turnover rate for the aminolysis reaction were then used for investigating the synthesis behavior of variant A2C8_H39Y/H59Y/E60K/K189D. In FIG. 5 the time course of product formation for a transamidation reaction catalyzed by variant A2C8_H39Y/H59Y/E60K/K189D with various peptide substrates is illustrated.

H-RAHAK(DNP)-OH = molecular target: T1, H-RAHAK(DNP)-OH

Molecule	yield of dual labeled Fab-fragment ([1]; estimated by mass spectrometry)	site of modification, second step ([1]; mass spectrometry)	product yield at comparable conditions [2] [%]	KM, acyl acceptor (µM); zinc ions (100 µM): no; transamidation with 250 µM Bz-PGGYRAHAG-OH as acyl donor (H-RAHAK(DNP)-OH) [µM]	KM, acyl acceptor (µM); zinc ions (100 µM): yes; transamidation with 250 µM Bz-PGGYRAHAG-OH as acyl donor (H-RAHAK(DNP)-OH) [µM]	fold increase of KM of the nucleophilic peptide without zinc ions against with zinc ions (H-RAHAK(DNP)-OH)
B1	approximately 75%	exclusively modification at the C-terminal end of the heavy chain	59	–	–	–
B2	–	–	–	1630	144	increased by a factor of 11 to 1630 µM
